Data published in publication PMC3226747 (Nature, 2011).
Where no end group is shown, it is not given here. [ ]: non-standard residue; d: D form. pGlu = O=C1CC[C@@H](C(=O)O)N1

Molecular target: T1, MitTxβ (Micrurus tener tener (Texas coral snake), UniProt G9I930 31-149, disulfide bonds)
T1 sequence: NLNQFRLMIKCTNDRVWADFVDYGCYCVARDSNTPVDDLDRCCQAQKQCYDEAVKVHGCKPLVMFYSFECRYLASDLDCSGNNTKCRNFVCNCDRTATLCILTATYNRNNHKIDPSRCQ
Assay: ITC

B1: MitTxα (natural protein)
chain: [pGlu]IRPAFCYEDPPFFQKCGAFVDSYYFNRSRITCVHFFYGQCDVNQNHFTTMSECNRVCHG
modifications: not fully specified (bridges); also: disulfide bonds, pairing not given here
Kd: 12.2 ± 3.1 nM
